{"source": "paper PMC8287928", "target": "SARS-CoV-2 spike pseudotyped lentivirus (PV) (SARS-CoV-2 (Wuhan-Hu-1)) (UniProt P0DTC2)", "test": "dot blot (filter binding)", "data": [{"sequence": "TTACGTCAAGGTGTCACTCCCACTTTCCGGTTAATTTATGCTCTACCCGTCCACCTACCGGAAGCATCTCTTTGGCGTG [MSA1]", "values": [{"measurement": "Kd", "value": 0.0227, "unit": "nM"}]}, {"sequence": "TTACGTCAAGGTGTCACTCCACGGGTTTGGCGTCGGGCCTGGCGGGGGGATAGTGCGGTGGAAGCATCTCTTTGGCGTG [MSA5]", "values": [{"measurement": "Kd", "value": 0.0118, "unit": "nM"}]}]}
